# Data: publication PMC2766537
# Molecular target: glycosylphosphatidylinositol-anchored avidin test probe (avidin/CD14 fusion) (chicken | human) (UniProt P02701)
substance,measurement,value
glycosylphosphatidylinositol-anchored avidin test probe (avidin/CD14 fusion) (from UniProt P02701 25-152; P08571 318-375),stoichiometry N,4
